{"source": "patent US20030028002A1", "about": "“Cyclin D binding factor, and uses thereof” (published 2003)", "key": {"Ets1 DNA-binding domain": {"target": "T1, Ets1 DNA-binding domain (UniProt P14921 P14921:335-415)", "T1 sequence": "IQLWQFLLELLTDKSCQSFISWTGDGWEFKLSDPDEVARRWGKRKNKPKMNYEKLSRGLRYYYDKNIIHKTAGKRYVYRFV", "assay": "EMSA", "procedure": "(§1) Electrophoretic mobility shift assay (EMSA). Recombinant DMP1 protein was prepared in Sf9 cells [Hirai and Sherr, Mol. Cell. Biol. 16:6457-6467 (1996)]. Purified bacterial proteins representing the Ets1 DNA binding domain or full-length Ets1 [Inoue, et al., J. Biol. Chem. 273:29188-29194 (1998)] were used. EMSAs were performed [Inoue and Sherr, Mol. Cell. Biol. 18:1590-1600 (1998)] using either a 281-bp genomic fragment (−225 to +56) or double-stranded oligonucleotides containing the DMP1/Ets site obtained by annealing oligonucleotide 5′-[…]-3′ (sense strand SEQ ID NO:41); DMP1/Ets consensus sequence underlined) with a complementary antisense strand. For competition experiments, a 200-fold excess of unlabelled oligonucleotides was added to reaction mixtures before the probe. To verify the identity of the proteins in shifted complexes, reaction mixtures were incubated with control nonimmune rabbit serum (NRS), serum AF [Hirai and Sherr, Mol. Cell. Biol. 16:6457-6467 (1996)] and M-10 (both to DMP1 carboxylterminal epitopes), S-19 (DMP1 N-terminus), or C-20 (Ets1 C-terminus) before electrophoresis. M-10, S-19, and C-20 were from Santa Cruz Biotechnology."}, "Ets1 full length": {"target": "T2, Ets1 full length (UniProt P14921 P14921:1-441)", "T2 sequence": "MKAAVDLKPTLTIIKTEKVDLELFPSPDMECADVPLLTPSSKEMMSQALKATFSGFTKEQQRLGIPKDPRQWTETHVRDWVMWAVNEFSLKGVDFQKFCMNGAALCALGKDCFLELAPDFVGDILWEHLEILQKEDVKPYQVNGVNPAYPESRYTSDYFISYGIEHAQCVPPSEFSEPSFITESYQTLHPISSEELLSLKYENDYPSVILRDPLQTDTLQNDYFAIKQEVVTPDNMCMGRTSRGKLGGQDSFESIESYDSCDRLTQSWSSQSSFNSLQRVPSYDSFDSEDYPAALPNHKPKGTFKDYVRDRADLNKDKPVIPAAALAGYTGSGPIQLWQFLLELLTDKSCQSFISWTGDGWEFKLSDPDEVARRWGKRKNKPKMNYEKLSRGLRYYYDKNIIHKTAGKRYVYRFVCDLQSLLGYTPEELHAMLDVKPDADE", "assay": "EMSA; supershifted by Ets1 antiserum", "procedure": "as §1"}}, "data": [{"binder": "ARF DMP1/Ets site oligo 23 bp (dsDNA) DNA 1: AATTGGGACCCCGGATGCGGCAG DNA 2: CTGCCGCATCCGGGGTCCCAATT", "values": [{"measurement": "binding result", "setting": "Ets1 DNA-binding domain", "result": "binds"}, {"measurement": "binding result", "setting": "Ets1 full length", "result": "binds"}]}]}
